The values that follow come from US20160333110A1 (CHIOME BIOSCIENCE, published 2016).

For assay [1], the target named is T1, human TROP-1/EpCAM protein transiently expressed in CHO-K1 cells (human, UniProt P16422 24-314).
T1 construct: whole, on cells; also called human EpCAM/TROP-1; hEpCAM; not shown: C-terminal myc/His tag from pcDNA3.1-hEpCAM-myc/His
T1 sequence (looked up): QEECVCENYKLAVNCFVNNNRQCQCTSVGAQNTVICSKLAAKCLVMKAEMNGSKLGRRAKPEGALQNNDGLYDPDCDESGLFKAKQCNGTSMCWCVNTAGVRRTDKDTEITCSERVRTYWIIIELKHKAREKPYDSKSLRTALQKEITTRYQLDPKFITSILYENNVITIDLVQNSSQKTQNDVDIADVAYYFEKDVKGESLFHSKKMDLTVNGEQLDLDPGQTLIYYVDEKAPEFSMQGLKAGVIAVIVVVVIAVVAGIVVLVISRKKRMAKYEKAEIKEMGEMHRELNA
Description: FACS on CHO-K1 cells transiently expressing human EpCAM/TROP-1. An excerpt:
(§1) Specifically, each of an expression vector (mouse TROP-2-pcDNA3.1(+), furnished by the Institute of Molecular and Cellular Biosciences, the University of Tokyo) comprising the full-length cDNA of a mouse TROP-2 gene (GenBank accession No. NM_020047, Y08830), and an expression vector (pcDNA3.1-hEpCAM-myc/His) comprising the full-length cDNA of a human TROP-1/EpCAM gene (GenBank accession No. NM_002354), was transiently introduced into CHO-K1 cells, using Lipofectamine2000 reagent (Invitrogen). Thereafter, 24 to 48 hours later, the cells were removed from a culture dish by treating them with trypsin, and a cell suspension was then prepared. The thus prepared cell suspension was successively reacted with the produced anti-hTROP-2 monoclonal antibody (0.1 μg) and with PE-labeled anti-mouse IgG, and it was then analyzed by FACSCalibur.

For assay [2], the target named is T2, recombinant protein of the hTROP-2 extracellular region (human, UniProt P09758 27-263).
T2 construct: produced with baculovirus, purified on Ni Sepharose; also called hTROP-2 EC; hTROP-2-EC-His; not shown: C-terminal myc-His tag from pcDNA4/myc-His A
T2 sequence: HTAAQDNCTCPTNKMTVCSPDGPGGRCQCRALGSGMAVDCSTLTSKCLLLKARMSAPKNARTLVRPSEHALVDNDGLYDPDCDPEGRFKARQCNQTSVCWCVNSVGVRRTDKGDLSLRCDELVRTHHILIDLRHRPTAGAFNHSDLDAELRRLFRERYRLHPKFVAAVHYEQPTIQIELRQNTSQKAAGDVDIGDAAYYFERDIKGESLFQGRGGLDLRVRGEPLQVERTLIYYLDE
Put plainly: antigen-coated ELISA, plate coated with 0.5 µg/ml hTROP-2 extracellular region. The method, then:
(§2) Furthermore, antigen affinity was also examined by an ELISA method. ELISA was carried out using an ELISA plate which was coated with the recombinant protein of the hTROP-2 extracellular region as described in Example 3. Specifically, a 96-well plate (BD FALCON) was coated with a 50 μl/well recombinant protein of a hTROP-2 extracellular region that had been diluted with PBS to 0.5 μg/ml (at 4° C. overnight). Thereafter, the resultant was washed with a washing buffer (PBS containing 0.05% Tween 20), and a blocking buffer (PBS containing 2% skim milk and 0.05% Tween 20) was then added thereto (200 μl/well) to block it (at room temperature for 1 hour). The resultant was washed with a washing buffer. […] The obtained dilution samples were each added in an amount of 50 μl/well to the above-described ELISA plate (at room temperature for 2 hours). […] After the mixture had been washed with a washing buffer, a TMB (3,3′,5,5′-tetramethylbenzidine: SIGMA) substrate solution was added (50 μl/well) to the resultant to carry out a color reaction. Then, 1 M sulfuric acid (25 μl/well) was added to the reaction product to terminate the reaction. Using Microplate reader Model 550 (BioRad), an absorbance at 450 nm was measured with an absorbance at 655 nm used as a reference.

Assay [3] deals with T3, mouse TROP-2 protein transiently expressed in CHO-K1 cells (mouse, UniProt Q8BGV3 25-317).
T3 construct: whole, on cells
T3 sequence (looked up): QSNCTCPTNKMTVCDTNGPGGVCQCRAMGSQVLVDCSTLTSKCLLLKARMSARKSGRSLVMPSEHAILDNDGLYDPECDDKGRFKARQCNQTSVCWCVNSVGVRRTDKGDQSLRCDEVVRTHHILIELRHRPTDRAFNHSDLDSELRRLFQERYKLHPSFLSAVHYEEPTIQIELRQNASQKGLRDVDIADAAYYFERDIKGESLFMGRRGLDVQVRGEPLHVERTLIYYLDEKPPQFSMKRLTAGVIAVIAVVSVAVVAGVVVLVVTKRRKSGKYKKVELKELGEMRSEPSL
Put plainly: FACS on CHO-K1 cells transiently expressing mouse TROP-2.
Description: as §1

The target in assay [4] is T4, recombinant hTACSTD2-Fc-His protein (Creative BioMart) (human, UniProt P09758 27-274, limits assumed).
T4 construct: bought protein; also called hTROP-2 (low-density antigen-coated ELISA); not shown: Fc part of the bought fusion protein; not described; His tag
T4 sequence: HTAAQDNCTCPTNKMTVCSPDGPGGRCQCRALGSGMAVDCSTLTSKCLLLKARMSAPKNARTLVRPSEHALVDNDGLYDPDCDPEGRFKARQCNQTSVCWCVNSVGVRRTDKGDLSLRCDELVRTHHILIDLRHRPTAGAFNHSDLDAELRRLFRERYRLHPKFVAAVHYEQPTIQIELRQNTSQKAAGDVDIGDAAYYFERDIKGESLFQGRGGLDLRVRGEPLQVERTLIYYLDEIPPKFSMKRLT
Put plainly: low-density antigen-coated ELISA, plate coated with 0.1 µg/mL hTACSTD2-Fc-His. On the procedure:
as §2, with “Specifically, a 96-well plate (BD FALCON) was coated with a 50 μl/well recombinant protein of a hTROP-2 extracellular region that had been diluted with PBS to 0.5 μg/ml (at 4° C. overnight).” left out
(ELISA stands for enzyme-linked immunosorbent assay.)

By EC50 is commonly meant the midpoint of the concentration-response curve.

B1: anti-hTROP-2 monoclonal antibody clone K5-70 (antibody, mouse IgG2a, V domains shown)
VH: QVQLQQPGAELVRPGASVKLSCKASGYTFTIYWINWVKQRPGQGLEWIGNIYPSDSYTNYNQKFKDKATLTVDKSSSTAYMQLSSPTSEDSAVYYCTRTSMADYWGQGTTLTVSS
VL: DILLTQSPAILSVSPGERVSFSCRASQSIGTSIHWYQQRTNGSPRLLIKYASESISGIPSRFSGSGSGTDFTLSINSVESEDIADYYCQQSNSWPFTFGSGTKLEIK
notes: mouse IgG2a, hybridoma FERM BP-11251; also called K5-70 antibody; mouse K5-70 antibody
As to B1, the binding result in assay [1] and in assay [3] was “no binding (tested: 0.1 µg antibody)” in each case. The EC50 is 0.027 mg/L in assay [2] and 0.012 mg/L in assay [4].

B2: anti-hTROP-2 monoclonal antibody clone T6-16 (antibody, mouse IgG2a, V domains shown)
VH: EVQLQQSGPELVKPGASVKISCKASGYTFTDYNMHWVKQSHGKNLEWIGYIYPYNGGTGYNQRFKSRATMTVDKSSSTAYMELRSLTSDDSAVYYCAREDYGSSPSYAMDYWGQGTSVIVSS
VL: DVVMTQTPLSLPVSLGDQASISCRSSQSLVHGNGNTYLHWYLQKPGQSPKLLIYKVSNRFSGVPDRFSGSGSGTDFTLKISRVEAEDLGVYFCSQTTHVPTFGSGTKLEIK
notes: mouse IgG2a, hybridoma FERM BP-11346; also called T6-16 antibody
Turning to B2, the binding result in assay [1] and in assay [3] was “no binding (tested: 0.1 µg antibody)” each time. The EC50 was 0.03 mg/L in assay [2] and 0.041 mg/L in assay [4].
